In patent US7273747B2, “Cell having amplified signal transduction pathway responses and uses therefor” (Cadus Technologies, Inc., priority 1998, dated 2007):
Square brackets hold non-standard residues; d marks the D form. Ends that are not written are not given here. NMeF = CN[C@@H](Cc1ccccc1)C(=O)O; Cha = N[C@@H](CC1CCCCC1)C(=O)O; dCha = N[C@H](CC1CCCCC1)C(=O)O

Target: T1, C5a receptor (Homo sapiens, UniProt P21730)
T1 construct: expressed in transfected cells; host or cells: Saccharomyces cerevisiae strain CY10103 (sibling strains CY13970/13971 and CY13974/13975), carrying gpa1(41)-Gαi2, with a FUS1p-lacZ reporter plasmid
T1 sequence (P21730 1-350): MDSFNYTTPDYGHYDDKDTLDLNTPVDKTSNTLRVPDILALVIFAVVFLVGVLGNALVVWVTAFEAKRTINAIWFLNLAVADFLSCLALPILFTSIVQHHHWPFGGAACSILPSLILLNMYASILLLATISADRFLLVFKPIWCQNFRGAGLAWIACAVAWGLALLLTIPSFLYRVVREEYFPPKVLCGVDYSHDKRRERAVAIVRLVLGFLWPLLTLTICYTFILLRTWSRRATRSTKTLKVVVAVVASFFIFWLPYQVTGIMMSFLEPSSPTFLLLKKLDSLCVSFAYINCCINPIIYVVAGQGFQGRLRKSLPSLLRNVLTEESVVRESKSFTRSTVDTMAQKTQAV
Test: FUS1p-lacZ β-galactosidase reporter assay in yeast expressing a heterologous C5a receptor
Assay type: cell-based
Details: yeast strains carrying C5a receptor plasmid and FUS1p-lacZ reporter; 4 hours incubation with varying concentrations of ChaCha
From the text: Yeast strains expressing heterologous GPCRs can be constructed as previously described (see e.g. WO 94/23025). In this example, to create a yeast strain expressing a heterologous GPCR and a Ste5 expression plasmid, yeast strain CY10103 (genotype MATa ste18 g6-3841 far1D1442 cyh2 tbt1-1 FUS1p-HIS3 can1 ste14::trp1::LYS2 ste3D1156 gpa1(41)-Gαi2 lys2 ura3 leu2 trp1 his3 ade2D3447 ade8D3457) was transformed by electroporation with a C5a receptor-bearing plasmid (Cp1303; genotype LEU2 PGKp-C5aR 2m-ori REP3 bla), a reporter plasmid (Cp1584; genotype bla TRP1 2m-ori FUS1p-lacZ), and plasmids that express either wild-type STE5p (Cp5373; genotype URA3 CEN6 ARSH4 bla FUS1p-STE5), a hyperactive STE5p mutant (Cp5643; genotype URA3 CEN6 ARSH4 bla FUS1p-STE5(S18R,T52M)), or no STE5p (Cp1015; genotype URA3 CEN6 ARSH4 bla). Triple transformants were selected on SC plates lacking uracil, tryptophan, and leucine. […]

responsiveness to ligand, monitored as β-galactosidase activity (agonist activity at the C5a receptor): potent agonist
Substance: N-methyl-Phe-Lys-Pro-dCha-Cha-dArg ([NMeF]KP[dCha][Cha][dR]) [ChaCha, C5a receptor ligand; Cha is cyclohexylalanine]
